Starred links: 1 amine or outer side, 2 acyl side, 3 side chain; linkers in the order of their positions; H or OH if unused. Non-standard residues stand in square brackets, D forms with d. Primed or numbered codes have the meaning given here. *: point of attachment. NPipG = 2-(piperidin-4-ylamino)acetic acid, O=C(CN(C1CCN([*:3])CC1)[*:1])[*:2]; AC4Abu = α-carboxy-4-aminobutyric acid, O=C(C(CCN[*:1])C(=O)[*:3])[*:2]; Bip = N[C@@H](Cc1ccc(-c2ccccc2)cc1)C(=O)O; dBip = N[C@H](Cc1ccc(-c2ccccc2)cc1)C(=O)O; Oic = O=C(O)[C@@H]1C[C@@H]2CCCC[C@@H]2N1; Phe(4-Cl) = N[C@@H](Cc1ccc(Cl)cc1)C(=O)O; Phe(4-F) = N[C@@H](Cc1ccc(F)cc1)C(=O)O; Phe(4-I) = N[C@@H](Cc1ccc(I)cc1)C(=O)O; γGlu = O=C(O)[C@H](CCC(=O)[*:2])N[*:1]; d(β3hF) = N[C@@H](CC(=O)O)Cc1ccccc1; Igl = N[C@H](C(=O)O)C1Cc2ccccc2C1; NMeR = CN[C@@H](CCCNC(=N)N)C(=O)O; Palmitoyl = CCCCCCCCCCCCCCCC(=O)*; hArg = N=C(N)NCCCC[C@H](N)C(=O)O; 3Pal = N[C@@H](Cc1cccnc1)C(=O)O; Cha = N[C@@H](CC1CCCCC1)C(=O)O; NMeL = CN[C@@H](CC(C)C)C(=O)O; αMeL = CC(C)C[C@](C)(N)C(=O)O; αMeOrn = C[C@](N)(CCCN)C(=O)O; β3hP = O=C(O)C[C@@H]1CCCN1; αMeS = C[C@](N)(CO)C(=O)O; Nle = CCCC[C@H](N)C(=O)O; Dab = NCC[C@H](N)C(=O)O; Pip′ = not defined here; Dap = NC[C@H](N)C(=O)O; Hexanoyl = CCCCCC(=O)*; AEEA = NCCOCCOCC(=O)O; Aib = CC(C)(N)C(=O)O; Ahx = NCCCCCC(=O)O; BLeu = β-leucine
T1: human APJ receptor (human, UniProt P35414 1-380)
T1 sequence (looked up): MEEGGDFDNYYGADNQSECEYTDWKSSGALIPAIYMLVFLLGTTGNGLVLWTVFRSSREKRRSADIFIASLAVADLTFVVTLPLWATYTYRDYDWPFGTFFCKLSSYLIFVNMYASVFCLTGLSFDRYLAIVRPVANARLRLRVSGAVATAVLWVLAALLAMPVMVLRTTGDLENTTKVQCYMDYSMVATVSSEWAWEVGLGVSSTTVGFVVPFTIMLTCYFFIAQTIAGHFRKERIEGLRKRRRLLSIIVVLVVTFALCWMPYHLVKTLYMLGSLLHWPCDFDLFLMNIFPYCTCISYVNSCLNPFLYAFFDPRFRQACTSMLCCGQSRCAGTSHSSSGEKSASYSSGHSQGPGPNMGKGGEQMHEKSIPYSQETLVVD

T2: rat APJ receptor (rat, UniProt Q9JHG3 1-377)
T2 sequence (looked up): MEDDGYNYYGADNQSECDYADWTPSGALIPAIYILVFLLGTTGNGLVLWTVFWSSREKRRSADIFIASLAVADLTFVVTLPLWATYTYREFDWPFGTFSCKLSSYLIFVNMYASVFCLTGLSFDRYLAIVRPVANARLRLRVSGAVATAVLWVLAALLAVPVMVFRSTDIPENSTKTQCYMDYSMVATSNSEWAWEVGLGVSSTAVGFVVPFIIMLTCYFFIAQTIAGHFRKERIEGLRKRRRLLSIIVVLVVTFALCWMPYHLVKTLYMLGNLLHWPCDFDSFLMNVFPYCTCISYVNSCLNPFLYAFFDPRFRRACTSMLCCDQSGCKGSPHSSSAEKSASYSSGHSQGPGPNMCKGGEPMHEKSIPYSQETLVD

B1: SEQ ID NO: 636 (peptide)
peptide: Palmitoyl-[γGlu][AEEA][AEEA][dQ]RP[NMeR][αMeL]SH[3Pal]G[Oic][Nle][β3hP][Phe(4-Cl)]-OH
SMILES: CCCCCCCCCCCCCCCC(=O)N[C@@H](CCC(=O)NCCOCCOCC(=O)NCCOCCOCC(=O)N[C@H](CCC(N)=O)C(=O)N[C@@H](CCCNC(=N)N)C(=O)N1CCC[C@H]1C(=O)N(C)[C@@H](CCCNC(=N)N)C(=O)N[C@@](C)(CC(C)C)C(=O)N[C@@H](CO)C(=O)N[C@@H](Cc1c[nH]cn1)C(=O)N[C@@H](Cc1cccnc1)C(=O)NCC(=O)N1[C@H](C(=O)N[C@@H](CCCC)C(=O)N2CCC[C@H]2CC(=O)N[C@@H](Cc2ccc(Cl)cc2)C(=O)O)C[C@@H]2CCCC[C@@H]21)C(=O)O
B2: SEQ ID NO: 627 (peptide)
peptide: Palmitoyl-[γGlu][AEEA][AEEA][dQ]RP[NMeR][αMeL][αMeS]HKG[Oic][Nle][β3hP][Phe(4-Cl)]-OH
SMILES: CCCCCCCCCCCCCCCC(=O)N[C@@H](CCC(=O)NCCOCCOCC(=O)NCCOCCOCC(=O)N[C@H](CCC(N)=O)C(=O)N[C@@H](CCCNC(=N)N)C(=O)N1CCC[C@H]1C(=O)N(C)[C@@H](CCCNC(=N)N)C(=O)N[C@@](C)(CC(C)C)C(=O)N[C@@](C)(CO)C(=O)N[C@@H](Cc1c[nH]cn1)C(=O)N[C@@H](CCCCN)C(=O)NCC(=O)N1[C@H](C(=O)N[C@@H](CCCC)C(=O)N2CCC[C@H]2CC(=O)N[C@@H](Cc2ccc(Cl)cc2)C(=O)O)C[C@@H]2CCCC[C@@H]21)C(=O)O
B3: SEQ ID NO: 566 (peptide)
peptide: Hexanoyl-[Ahx][AC4Abu][AEEA][AEEA][hArg][dR]Q[hArg]P[dR][NMeL]SHKG[Oic][Phe(4-I)]P[dBip]-OH
SMILES: CCCCCC(=O)NCCCCCC(=O)NCCC(C(=O)O)C(=O)NCCOCCOCC(=O)NCCOCCOCC(=O)N[C@@H](CCCCNC(=N)N)C(=O)N[C@H](CCCNC(=N)N)C(=O)N[C@@H](CCC(N)=O)C(=O)N[C@@H](CCCCNC(=N)N)C(=O)N1CCC[C@H]1C(=O)N[C@H](CCCNC(=N)N)C(=O)N(C)[C@@H](CC(C)C)C(=O)N[C@@H](CO)C(=O)N[C@@H](Cc1c[nH]cn1)C(=O)N[C@@H](CCCCN)C(=O)NCC(=O)N1[C@H](C(=O)N[C@@H](Cc2ccc(I)cc2)C(=O)N2CCC[C@H]2C(=O)N[C@H](Cc2ccc(-c3ccccc3)cc2)C(=O)O)C[C@@H]2CCCC[C@@H]21
B4: SEQ ID NO: 639 (peptide)
peptide: Palmitoyl-[γGlu][AEEA][AEEA][dQ]RP[NMeR][αMeL]SH[Dap]G[Oic][Nle][β3hP][Phe(4-Cl)]-OH
B5: SEQ ID NO: 628 (peptide)
peptide: Palmitoyl-[γGlu][AEEA][AEEA][dQ]RP[NMeR][αMeL][BLeu]HKG[Oic][Nle][β3hP][Phe(4-Cl)]-OH
B6: SEQ ID NO: 629 (peptide)
peptide: Palmitoyl-[γGlu][AEEA][AEEA][dQ]RP[NMeR][αMeL]S[Bip]KG[Oic][Nle][β3hP][Phe(4-Cl)]-OH
SMILES: CCCCCCCCCCCCCCCC(=O)N[C@@H](CCC(=O)NCCOCCOCC(=O)NCCOCCOCC(=O)N[C@H](CCC(N)=O)C(=O)N[C@@H](CCCNC(=N)N)C(=O)N1CCC[C@H]1C(=O)N(C)[C@@H](CCCNC(=N)N)C(=O)N[C@@](C)(CC(C)C)C(=O)N[C@@H](CO)C(=O)N[C@@H](Cc1ccc(-c2ccccc2)cc1)C(=O)N[C@@H](CCCCN)C(=O)NCC(=O)N1[C@H](C(=O)N[C@@H](CCCC)C(=O)N2CCC[C@H]2CC(=O)N[C@@H](Cc2ccc(Cl)cc2)C(=O)O)C[C@@H]2CCCC[C@@H]21)C(=O)O
B7: SEQ ID NO: 512 (peptide)
peptide: XXXQRPRLSHKGPXPF
modifications: {HexDDA}[AC4Abu][Aeea][Aeea]QRP[NMeArg]LSHKGP[Nle]P[4-Cl-F]{COOH}
B8: SEQ ID NO: 493 (peptide)
peptide: XXXQRPRLSHKGPXPF
modifications: {Oc}[AC4Abu][Aeea][Aeea]QRP[NMeArg]LSHKGP[Nle]P[4-Cl-F]{COOH}
B9: SEQ ID NO: 637 (peptide)
peptide: Palmitoyl-[γGlu][AEEA][AEEA][dQ]RP[NMeR][αMeL]SH[Phe(4-F)]G[Oic][Nle][β3hP][Phe(4-Cl)]-OH
B10: SEQ ID NO: 290 (peptide)
peptide: XXXQRPRLSHKGPMPF
modifications: {ODDA}[AC4Abu][Aeea][Aeea]QRPRLSHKGPMPF{COOH}
B11: SEQ ID NO: 638 (peptide)
peptide: Palmitoyl-[γGlu][AEEA][AEEA][dQ]RP[NMeR][αMeL]SH[Dab]G[Oic][Nle][β3hP][Phe(4-Cl)]-OH
B12: SEQ ID NO: 640 (peptide)
peptide: Palmitoyl-[AC4Abu][AEEA][AEEA][dQ]RP[NMeR][αMeL]SH[Igl]G[Oic][Nle][β3hP][Phe(4-Cl)]-OH
B13: SEQ ID NO: 635 (peptide)
peptide: Palmitoyl-[γGlu][AEEA][AEEA][dQ]RP[NMeR][αMeL]SH[αMeOrn]G[Oic][Nle][β3hP][Phe(4-Cl)]-OH
SMILES: CCCCCCCCCCCCCCCC(=O)N[C@@H](CCC(=O)NCCOCCOCC(=O)NCCOCCOCC(=O)N[C@H](CCC(N)=O)C(=O)N[C@@H](CCCNC(=N)N)C(=O)N1CCC[C@H]1C(=O)N(C)[C@@H](CCCNC(=N)N)C(=O)N[C@@](C)(CC(C)C)C(=O)N[C@@H](CO)C(=O)N[C@@H](Cc1c[nH]cn1)C(=O)N[C@@](C)(CCCN)C(=O)NCC(=O)N1[C@H](C(=O)N[C@@H](CCCC)C(=O)N2CCC[C@H]2CC(=O)N[C@@H](Cc2ccc(Cl)cc2)C(=O)O)C[C@@H]2CCCC[C@@H]21)C(=O)O
B14: SEQ ID NO: 646 (peptide)
peptide: Palmitoyl-[AC4Abu][AEEA][AEEA][dQ][NPipG]P[NMeR][Cha]SHKG[Pip′][Nle][Aib][Phe(4-Cl)]-OH
B15: SEQ ID NO: 614 (peptide)
peptide: Palmitoyl-[γGlu][AEEA][AEEA][dQ][hArg]P[dR][Cha]SHKG[Oic][Nle]P[d(β3hF)]-OH
SMILES: CCCCCCCCCCCCCCCC(=O)N[C@@H](CCC(=O)NCCOCCOCC(=O)NCCOCCOCC(=O)N[C@H](CCC(N)=O)C(=O)N[C@@H](CCCCNC(=N)N)C(=O)N1CCC[C@H]1C(=O)N[C@H](CCCNC(=N)N)C(=O)N[C@@H](CC1CCCCC1)C(=O)N[C@@H](CO)C(=O)N[C@@H](Cc1c[nH]cn1)C(=O)N[C@@H](CCCCN)C(=O)NCC(=O)N1[C@H](C(=O)N[C@@H](CCCC)C(=O)N2CCC[C@H]2C(=O)N[C@@H](CC(=O)O)Cc2ccccc2)C[C@@H]2CCCC[C@@H]21)C(=O)O

These binders were tested against T1, human APJ receptor (assay: cell-based or functional assay).

EC50 Human APJ Receptor [nM] | Binder
1.59 | B1
0.244 | B2
1.13 | B3
3.28 | B4
0.309 | B5
2.45 | B6
0.658 | B7
0.12 | B8
4.05 | B9
40.1 | B10
3.2 | B11
4.03 | B12
1.62 | B13
0.27 | B14
1.25 | B15

Each binder was assayed against T2, rat APJ receptor (assay: cell-based or functional assay).

EC50 Rat APJ Receptor [nM] | Binder
3.65 | B1
0.641 | B2
1.65 | B3
15.4 | B4
0.773 | B5
5.3 | B6
4.59 | B7
0.647 | B8
14.2 | B9
173 | B10
9.32 | B11
25.2 | B12
6.64 | B13
0.994 | B14
10.3 | B15

Reference: patent US10941182 (Amgen, dated 2021)
